Measurements taken from publication PMC6327041, “Histone H3 binding to the PHD1 domain of histone demethylase KDM5A enables active site remodeling” (Nature Communications, 2019).

B1: unmodified H3 10mer effector peptide (H3 Ala1-Ser10) [not stated] / GST-PHD1 (S287-K347) of KDM5A [human] (parent)
chain 1: ARTKQTARKS
chain 2: SVNFVDLYVCMFCGRGNNEDKLLLCDGCDDSYHTFCLIPPLPDVPKGDWRCPKCVAEECSK

Variants of: B1
Experiment: competition-based fluorescence polarization assay
Conditions: with GST-PHD1 (S287-K347) of KDM5A [human]

Row | Kd [µM] | Variant
1 | 205 | chain 1 AATKQTARKS [chain 1 R2A]
